According to patent US20110287512:

system: ZFP8196 linker TCPRPPTRKP (artificial); test: not given; conditions: not given

| Sequence | binding signal (normalized ELISA) |
| --- | --- |
| TTAGATAAACTGACAAAAGGCTATC (double strand) [8196 target gap A] | 0.18 |
| TTAGATAAACTGGCAAAAGGCTATC (double strand) [8196 target gap G] | 0.48 |
| TTAGATAAACTGCCAAAAGGCTATC (double strand) [8196 target gap C] | 0.05 |

system: ZFP8196 linker TSSPRSNAKP (artificial); test: not given; conditions: not given

| Sequence | binding signal (normalized ELISA) |
| --- | --- |
| TTAGATAAACTGACAAAAGGCTATC (double strand) [8196 target gap A] | 0.05 |
| TTAGATAAACTGGCAAAAGGCTATC (double strand) [8196 target gap G] | 0.2 |
| TTAGATAAACTGCCAAAAGGCTATC (double strand) [8196 target gap C] | 0.02 |

system: ZFP8196 linker TGEGGKP (artificial); test: not given; conditions: not given

| Sequence | binding signal (normalized ELISA) |
| --- | --- |
| TTAGATAAACTGACAAAAGGCTATC (double strand) [8196 target gap A] | 0 |
| TTAGATAAACTGGCAAAAGGCTATC (double strand) [8196 target gap G] | 0.03 |
| TTAGATAAACTGCCAAAAGGCTATC (double strand) [8196 target gap C] | 0 |

system: ZFP8196 (host, center linker TGEKP) (artificial); test: not given; conditions: not given

| Sequence | binding signal (normalized ELISA) |
| --- | --- |
| TTAGATAAACTGACAAAAGGCTATC (double strand) [8196 target gap A] | 0.01 |
| TTAGATAAACTGGCAAAAGGCTATC (double strand) [8196 target gap G] | 0.03 |
| TTAGATAAACTGCCAAAAGGCTATC (double strand) [8196 target gap C] | 0.01 |

system: ZFP8196 linker 1c (artificial); test: not given; conditions: not given

| Sequence | binding signal (normalized ELISA) |
| --- | --- |
| TTAGATAAACTGACAAAAGGCTATC (double strand) [8196 target gap A] | 0.2 |
| TTAGATAAACTGGCAAAAGGCTATC (double strand) [8196 target gap G] | 0.57 |
| TTAGATAAACTGCCAAAAGGCTATC (double strand) [8196 target gap C] | 0.09 |

system: ZFP8196 linker LRQKDERP (artificial); test: not given; conditions: not given

| Sequence | binding signal (normalized ELISA) |
| --- | --- |
| TTAGATAAACTGACAAAAGGCTATC (double strand) [8196 target gap A] | 0.01 |
| TTAGATAAACTGGCAAAAGGCTATC (double strand) [8196 target gap G] | 0.04 |
| TTAGATAAACTGCCAAAAGGCTATC (double strand) [8196 target gap C] | 0.01 |

system: ZFP8196 linker TPDAPKPKP (artificial); test: not given; conditions: not given

| Sequence | binding signal (normalized ELISA) |
| --- | --- |
| TTAGATAAACTGACAAAAGGCTATC (double strand) [8196 target gap A] | 0.16 |
| TTAGATAAACTGGCAAAAGGCTATC (double strand) [8196 target gap G] | 0.68 |
| TTAGATAAACTGCCAAAAGGCTATC (double strand) [8196 target gap C] | 0.13 |

system: ZFP8196 linker TGGGGSQKP (artificial); test: not given; conditions: not given

| Sequence | binding signal (normalized ELISA) |
| --- | --- |
| TTAGATAAACTGACAAAAGGCTATC (double strand) [8196 target gap A] | 0 |
| TTAGATAAACTGGCAAAAGGCTATC (double strand) [8196 target gap G] | 0 |
| TTAGATAAACTGCCAAAAGGCTATC (double strand) [8196 target gap C] | 0 |

system: ZFP8196 linker TPSHTPRPKP (artificial); test: not given; conditions: not given

| Sequence | binding signal (normalized ELISA) |
| --- | --- |
| TTAGATAAACTGACAAAAGGCTATC (double strand) [8196 target gap A] | 0.3 |
| TTAGATAAACTGGCAAAAGGCTATC (double strand) [8196 target gap G] | 0.84 |
| TTAGATAAACTGCCAAAAGGCTATC (double strand) [8196 target gap C] | 0.13 |

system: ZFP8196 linker 1d (artificial); test: not given; conditions: not given

| Sequence | binding signal (normalized ELISA) |
| --- | --- |
| TTAGATAAACTGACAAAAGGCTATC (double strand) [8196 target gap A] | 0.23 |
| TTAGATAAACTGGCAAAAGGCTATC (double strand) [8196 target gap G] | 0.52 |
| TTAGATAAACTGCCAAAAGGCTATC (double strand) [8196 target gap C] | 0.09 |

system: ZFP8196 linker TGYSIPRPKP (artificial); test: not given; conditions: not given

| Sequence | binding signal (normalized ELISA) |
| --- | --- |
| TTAGATAAACTGACAAAAGGCTATC (double strand) [8196 target gap A] | 0.13 |
| TTAGATAAACTGGCAAAAGGCTATC (double strand) [8196 target gap G] | 0.43 |
| TTAGATAAACTGCCAAAAGGCTATC (double strand) [8196 target gap C] | 0.06 |

system: ZFP8196 linker TEPRAKPPKP (artificial); test: not given; conditions: not given

| Sequence | binding signal (normalized ELISA) |
| --- | --- |
| TTAGATAAACTGACAAAAGGCTATC (double strand) [8196 target gap A] | 0.39 |
| TTAGATAAACTGGCAAAAGGCTATC (double strand) [8196 target gap G] | 0.78 |
| TTAGATAAACTGCCAAAAGGCTATC (double strand) [8196 target gap C] | 0.17 |

system: ZFP8196 linker TPDRPISTCKP (artificial); test: not given; conditions: not given

| Sequence | binding signal (normalized ELISA) |
| --- | --- |
| TTAGATAAACTGACAAAAGGCTATC (double strand) [8196 target gap A] | 0.11 |
| TTAGATAAACTGGCAAAAGGCTATC (double strand) [8196 target gap G] | 0.29 |
| TTAGATAAACTGCCAAAAGGCTATC (double strand) [8196 target gap C] | 0.05 |

system: ZFP8196 linker TPGLHRPKP (artificial); test: not given; conditions: not given

| Sequence | binding signal (normalized ELISA) |
| --- | --- |
| TTAGATAAACTGACAAAAGGCTATC (double strand) [8196 target gap A] | 0.19 |
| TTAGATAAACTGGCAAAAGGCTATC (double strand) [8196 target gap G] | 0.65 |
| TTAGATAAACTGCCAAAAGGCTATC (double strand) [8196 target gap C] | 0.1 |

system: ZFP8196 linker TSPRLPAPKP (artificial); test: not given; conditions: not given

| Sequence | binding signal (normalized ELISA) |
| --- | --- |
| TTAGATAAACTGACAAAAGGCTATC (double strand) [8196 target gap A] | 0.26 |
| TTAGATAAACTGGCAAAAGGCTATC (double strand) [8196 target gap G] | 0.62 |
| TTAGATAAACTGCCAAAAGGCTATC (double strand) [8196 target gap C] | 0.14 |

system: ZFP8196 linker TVSPAPCRSKP (artificial); test: not given; conditions: not given

| Sequence | binding signal (normalized ELISA) |
| --- | --- |
| TTAGATAAACTGACAAAAGGCTATC (double strand) [8196 target gap A] | 0.03 |
| TTAGATAAACTGGCAAAAGGCTATC (double strand) [8196 target gap G] | 0.14 |
| TTAGATAAACTGCCAAAAGGCTATC (double strand) [8196 target gap C] | 0.01 |

system: ZFP8196 linker 1f center linker F2-F3 TGEKP replaced by TYPRPIAAKP (artificial); test: ELONA; conditions: normalized ELISA score

| Sequence | binding signal |
| --- | --- |
| TTAGATAAACTGACAAAAGGCTATC (double strand) [8196 target gap A] | 0.41 |
| TTAGATAAACTGGCAAAAGGCTATC (double strand) [8196 target gap G] | 0.65 |
| TTAGATAAACTGCCAAAAGGCTATC (double strand) [8196 target gap C] | 0.14 |

system: ZFP7264 linker 1e center linker F2-F3 TGSQKP replaced by TVPRPTPPKP (artificial); test: ELONA; conditions: normalized ELISA score

| Sequence | binding signal |
| --- | --- |
| TTAGTTAAAGCGAGCTCCGAATATC (double strand) [7264 target gap A] | 2.35 |
| TTAGTTAAAGCGGGCTCCGAATATC (double strand) [7264 target gap G] | 1.58 |
| TTAGTTAAAGCGCGCTCCGAATATC (double strand) [7264 target gap C] | 1.02 |

system: ZFP7264 linker TGGGGSQKP (artificial); test: not given; conditions: not given

| Sequence | binding signal (normalized ELISA) |
| --- | --- |
| TTAGTTAAAGCGAGCTCCGAATATC (double strand) [7264 target gap A] | 0.07 |
| TTAGTTAAAGCGGGCTCCGAATATC (double strand) [7264 target gap G] | 0.08 |
| TTAGTTAAAGCGCGCTCCGAATATC (double strand) [7264 target gap C] | 0.04 |

system: ZFP7264 linker TLPPCFRPKP (artificial); test: not given; conditions: not given

| Sequence | binding signal (normalized ELISA) |
| --- | --- |
| TTAGTTAAAGCGAGCTCCGAATATC (double strand) [7264 target gap A] | 0.72 |
| TTAGTTAAAGCGGGCTCCGAATATC (double strand) [7264 target gap G] | 0.77 |
| TTAGTTAAAGCGCGCTCCGAATATC (double strand) [7264 target gap C] | 0.25 |

system: ZFP7264 (host, center linker TGSQKP) (artificial); test: not given; conditions: not given

| Sequence | binding signal (normalized ELISA) |
| --- | --- |
| TTAGTTAAAGCGAGCTCCGAATATC (double strand) [7264 target gap A] | 0 |
| TTAGTTAAAGCGGGCTCCGAATATC (double strand) [7264 target gap G] | 0 |
| TTAGTTAAAGCGCGCTCCGAATATC (double strand) [7264 target gap C] | 0 |

system: ZFP7264 linker LRQKDERP (artificial); test: not given; conditions: not given

| Sequence | binding signal (normalized ELISA) |
| --- | --- |
| TTAGTTAAAGCGAGCTCCGAATATC (double strand) [7264 target gap A] | 0.05 |
| TTAGTTAAAGCGGGCTCCGAATATC (double strand) [7264 target gap G] | 0.06 |
| TTAGTTAAAGCGCGCTCCGAATATC (double strand) [7264 target gap C] | 0.03 |

system: ZFP7264 linker TSRPRPKP (artificial); test: not given; conditions: not given

| Sequence | binding signal (normalized ELISA) |
| --- | --- |
| TTAGTTAAAGCGAGCTCCGAATATC (double strand) [7264 target gap A] | 0.52 |
| TTAGTTAAAGCGGGCTCCGAATATC (double strand) [7264 target gap G] | 0.77 |
| TTAGTTAAAGCGCGCTCCGAATATC (double strand) [7264 target gap C] | 0.22 |

system: ZFP7264 linker TKHGTPKHREDKP (artificial); test: not given; conditions: not given

| Sequence | binding signal (normalized ELISA) |
| --- | --- |
| TTAGTTAAAGCGAGCTCCGAATATC (double strand) [7264 target gap A] | 0.01 |
| TTAGTTAAAGCGGGCTCCGAATATC (double strand) [7264 target gap G] | 0.01 |
| TTAGTTAAAGCGCGCTCCGAATATC (double strand) [7264 target gap C] | 0.01 |

system: ZFP7264 linker TGLPKPKP (artificial); test: not given; conditions: not given

| Sequence | binding signal (normalized ELISA) |
| --- | --- |
| TTAGTTAAAGCGAGCTCCGAATATC (double strand) [7264 target gap A] | 0.19 |
| TTAGTTAAAGCGGGCTCCGAATATC (double strand) [7264 target gap G] | 0.38 |
| TTAGTTAAAGCGCGCTCCGAATATC (double strand) [7264 target gap C] | 0.11 |

system: ZFP7264 linker TGEGGKP (artificial); test: not given; conditions: not given

| Sequence | binding signal (normalized ELISA) |
| --- | --- |
| TTAGTTAAAGCGAGCTCCGAATATC (double strand) [7264 target gap A] | 0.02 |
| TTAGTTAAAGCGGGCTCCGAATATC (double strand) [7264 target gap G] | 0.05 |
| TTAGTTAAAGCGCGCTCCGAATATC (double strand) [7264 target gap C] | 0.03 |

system: ZFP7264 linker TLPLPRPKP (artificial); test: not given; conditions: not given

| Sequence | binding signal (normalized ELISA) |
| --- | --- |
| TTAGTTAAAGCGAGCTCCGAATATC (double strand) [7264 target gap A] | 0.58 |
| TTAGTTAAAGCGGGCTCCGAATATC (double strand) [7264 target gap G] | 0.85 |
| TTAGTTAAAGCGCGCTCCGAATATC (double strand) [7264 target gap C] | 0.25 |
